Measurements published in doi:10.1101/2020.08.10.244244.

Biological target: HA-tagged mutant (Leu15) AP2σ2 subunit (human) (human) (UniProt P53680)
Assay: co-IP

- reduction of the subunit in the HA-AP2σ2 immunoprecipitate against WT cells: > 50%
Substance: AP2α subunit, endogenous in HEK293 cells (from UniProt O95782 1-977) (natural protein)
